We go through two molecules from US20250049939A1, “NOVEL FLT3 ANTIBODIES AND ANTIBODY-DRUG-CONJUGATES BASED THEREON, THERAPEUTIC METHODS AND USES THEREOF IN COMBINATION WITH TYROSINE KINASE INHIBITORS” (TUBULIS GmbH, priority 2021, published 2025).

The target of assay [1] is T1, human wildtype FLT3 (hFLT3 wt) (Homo sapiens, UniProt P36888).
T1 construct: expressed in transfected cells; host or cells: Ba/F3 cells, retrovirally transduced with MSCV-IRES-YFP (pMIY) vector
T1 sequence (P36888 27-993): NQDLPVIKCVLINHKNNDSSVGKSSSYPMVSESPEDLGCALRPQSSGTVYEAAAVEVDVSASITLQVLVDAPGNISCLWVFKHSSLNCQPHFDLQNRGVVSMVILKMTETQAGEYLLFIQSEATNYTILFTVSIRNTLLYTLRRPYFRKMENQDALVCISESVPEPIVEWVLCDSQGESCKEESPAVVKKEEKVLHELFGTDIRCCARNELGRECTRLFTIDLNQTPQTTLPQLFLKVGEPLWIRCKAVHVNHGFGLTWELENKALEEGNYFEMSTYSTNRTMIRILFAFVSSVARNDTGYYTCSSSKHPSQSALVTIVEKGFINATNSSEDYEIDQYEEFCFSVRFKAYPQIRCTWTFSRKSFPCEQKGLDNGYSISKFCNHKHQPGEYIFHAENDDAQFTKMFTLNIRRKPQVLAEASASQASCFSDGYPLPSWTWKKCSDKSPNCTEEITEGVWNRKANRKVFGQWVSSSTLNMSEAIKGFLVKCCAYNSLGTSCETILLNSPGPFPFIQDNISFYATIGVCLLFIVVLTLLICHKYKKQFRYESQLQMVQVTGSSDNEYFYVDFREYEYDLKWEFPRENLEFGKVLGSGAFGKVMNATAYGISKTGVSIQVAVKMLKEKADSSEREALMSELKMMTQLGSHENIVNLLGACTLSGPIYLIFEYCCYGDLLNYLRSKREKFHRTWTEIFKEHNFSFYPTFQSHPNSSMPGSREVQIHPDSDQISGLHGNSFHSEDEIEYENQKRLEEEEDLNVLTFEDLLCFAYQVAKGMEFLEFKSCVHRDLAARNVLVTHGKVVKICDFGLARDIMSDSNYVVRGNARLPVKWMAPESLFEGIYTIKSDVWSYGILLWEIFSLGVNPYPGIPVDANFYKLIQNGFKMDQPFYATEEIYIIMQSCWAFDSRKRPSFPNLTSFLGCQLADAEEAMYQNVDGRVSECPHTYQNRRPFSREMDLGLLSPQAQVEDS
As to the kind of experiment: Cell surface binding to Ba/F3 hFLT3 wt, flow cytometry. The protocol:
(§1) For antibody binding studies, cells were stained on ice with primary mouse, rat or human anti-FLT3 antibodies (in house) and secondary antibody Goat F(ab′)2 Anti-Human Ig-PE (2012-09), Goat Anti-Mouse IgG (H+L)-PE (1032-09) or Goat Anti-Rat IgG (H+L)-PE (3052-09) purchased from Southern Biotech. For internalization experiments, cells incubated with anti-FLT3 antibodies were washed and incubated for 30 min at 4° C. or 37° C. followed by staining with secondary antibody.
(§2) For FLT3 expression analysis, cells were stained on ice with primary mouse anti-FLT3-AF647 antibodies for 30 min. For antibody binding studies, cells were stained on ice with chimeric (20D9) or humanized anti-FLT3 antibodies (in house) or IgG1 control with or without Leu234Ala/Leu235Ala (LALA)-mutation in the Fc region and secondary antibody goat F(ab′)2 Anti-Human IgG-AF647 (2042-31) purchased from Southern Biotech for 30 min, respectively. Binding and expression were subsequently measured at the flow cytometer (BD FACSCanto II) and the results were evaluated with FlowJo version 10.8.1.
For orientation: In flow cytometry, cells or beads pass a laser one at a time.

The target of assay [2] is T2, Ba/F3 cells expressing human wildtype FLT3 (Homo sapiens, UniProt P36888).
T2 construct: expressed in transfected cells; host or cells: Ba/F3 cells, retrovirally transduced with MSCV-IRES-YFP (pMIY) vector
T2 sequence (P36888 27-993): T1 sequence (P36888 27-993)
The assay is described as follows: Temperature induced internalization in Ba/F3-FLT3, flow cytometry. The settings on record: 30 min at 37° C. compared to 4° C. Type of assay: cell-based. The source says: FIG. 1: Evaluation of epitope specificity and internalization capability of anti-FLT3 monoclonal antibodies. (A) Affinity of seven anti-FLT3 monoclonal antibody (mab) clones to recombinant human FLT3 measured in enzyme-linked immunosorbent assay (ELISA) normalized to the binding of the antibodies to BSA control. […] (B) Schematic FLT3 receptor. Black arrows indicate common mutations and blue arrows indicate the three identified epitopes of seven anti-FLT3 antibodies analyzed in linear epitope mapping by PEPperPRINT. Figure was created with BioRender.com. (C) Binding and temperature induced internalization of anti-FLT3 antibodies in Ba/F3 cells expressing human wildtype FLT3. Internalization was induced by incubation for 30 min at 37° C. (grey) compared to 4° C. (black). Remaining surface-bound antibody was detected in flow cytometry. MFI was normalized to control human IgG1 binding. MFI=mean fluorescence intensity. […] (D) Cell surface binding of 20D9 mab or control human IgG1 antibody to Ba/F3 cells stably expressing pMIY (Ba/F3-pMIY) empty vector (ev), human wildtype (hFLT3 wt) or ITD mutant human FLT3 (hFLT3ITD) was measured in flow cytometry. Mean±s.d. of n=3. (E) Temperature induced internalization of 4B12 mab in MOLM-13 (FLT3 positive) cells after 30 min incubation at 37° C. compared to 4° C. and HL-60 (FLT3 negative) after 37° C. incubation assessed in immunofluorescence staining. Red=FLT3 staining by 4B12, Green=membrane staining by Vybrant DiO, Blue=nuclear staining by DAPI. Scale bar 5 μm. Representative pictures are shown. (F) Cell surface binding of 20D9 mab or control hIgG1 antibody to Ba/F3-pMIY ev, hFLT3 wt, murine (mFLT3 wt) or cynomolgues monkey FLT3 (cynoFLT3 wt) was measured in flow cytometry. Mean±s.d. of n=3. (G) Cell surface binding of 20D9 mab or control hIgG1 antibody to Ba/F3-PMIY ev, hFLT3 wt or epitope mutant FLT3 (hFLT3/S50P/P54R) measured in flow cytometry. Mean±s.d. of n=3. (H) Cell surface binding of 20D9 mab or control hIgG1 antibody to Ba/F3-PMIY ev, hFLT3 wt or human CD64 (hCD64) measured in flow cytometry. Mean±s.d. of n=3. […]

The subject of another assay is cynomolgus monkey FLT3. As to the kind of experiment: Cell surface binding to Ba/F3 cynoFLT3, flow cytometry. The protocol: as §1
Murine FLT3 (OMu21985D, Genescript), human CD64 (RC207487), CD32 (RC205786) and CD16 (RC206429), were purchased from Origene. Cynomolgues monkey FLT3 gene was synthesized from XM_015439107.1 by Eurofins. The constructs were cloned into retroviral expression vector MSCV-IRES-YFP (pMIY) using the In-Fusion HD Cloning Plus Kit (Takara Bio, Saint-Germain-en-Laye, France). All FLT3 point mutations were generated using the QuikChange II XL Site-Directed Mutagenesis Kit (Agilent Technologies, Santa Clara, CA, USA) and correct sequence was confirmed by Sanger sequencing. MSCV-IRES-YFP vectors with inserted human wildtype FLT3 and ITD (w51 and NPOS) mutated FLT3 has been described before (e.g., Opatz S, Polzer H, Herold T, et al. Exome sequencing identifies recurring FLT3 N676K mutations in core-binding factor leukemia. Blood. 2013; 122 (10): 1761-1769. doi: 10.1182/blood-2013-01-476473).
as §2

B1: 20D9: chimeric (rat variable regions, human IgG1) anti-FLT3 monoclonal antibody; VH SEQ ID NO: 5, VL SEQ ID NO: 6 (antibody, V domains shown)
VH: DVMLVESGGGLVQPGRSLKLSCVASGFTFNNYWMTWIRQAPGKGLEWIASITKTGGGTYYPDSVKGRFTISRDNAKSTLYLQMNSLRSEDTATYYCTTLQQLGVMDAWGQGASVTVSSA
VL: DVQMTQSPSVLSASVGDRITLNCKASQNINKELNWYQQKLGEAPKLLIYNTNNLQTGIPSRFSGSGSGTDYTLTISSLQPEDVATYFCFQHKSWPLTFGSGTKLEIKR
modifications: Clone 20D9, heavy chain variable region without a signal seqeunce; Clone 20D9, light chain variable region without a signal seqeunce
Take B1: the “Binding to Ba/F3-FLT3 cell line by flow cytometry” value in assay [1] was “specifically bound”. In addition, the “Internalization in Ba/F3-FLT3” value in assay [2] is recorded as 79%. Also, in the assay on cynomolgus monkey FLT3, the “Binding to cynomolgus monkey FLT3 expressing Ba/F3 cell lines” value is on record as “bound”; the “Cross reactivity for cyno” value was “cross-reactive and yes”.

B2: 4B12: chimeric anti-FLT3 antibody from rat; VH SEQ ID NO: 9, VL SEQ ID NO: 10 (antibody, V domains shown)
VH: QVQLQQSGPGLVQPSQTLSLTCTVSGFSLTSYNVNWVRQPPGKGLEWIGAMWRGGGTDYNPALKSRLSISRDTSKSQVFLKMNRLQTEDTAIYFCTRGFGDYWGQGVMVTVSSA
VL: DIQMTQTPLSLSVAIGQSASISCKSSQSLKYSDGKTYLNWVFQSPGQSPKRLIYQVSKLDSGVPDRFSGTGSETDFTLKISRVEAEDLGVYYCCQGSYSPSTFGAGTKLELKR
modifications: Clone 4B12, heavy chain variable region without a signal sequence; Clone 4B12, light chain variable region without a signal seqeunce
Consider B2, for which, in assay [1], the “Binding to Ba/F3-FLT3 cell line by flow cytometry” value is “specifically bound”. Also, in assay [2], the “Internalization in Ba/F3-FLT3” value is listed as 86%. Also, the “Cross reactivity for cyno” value with cynomolgus monkey FLT3 was “cross-reactive and yes”.
